In article PMC12148439:

Columns and labels:
[1] = target: CitAGacS649 (chimeric protein: GacS649 with its PDC domain replaced by the PDC domain of CitA from Klebsiella pneumoniae, C-terminal octa-histidine tag) (Pseudomonas aeruginosa | Klebsiella pneumoniae) (UniProt P52687); experiment: MST; CitAGacS649 labelled with AlexaFluor 488 at 80 nM, RetSHK titrated from 140 uM to 1.06 nM, 37 °C, 0.007% DDM, with 10 mM sodium citrate
[2] = target: CitAGacS649 (chimeric protein: GacS649 with its PDC domain replaced by the PDC domain of CitA from Klebsiella pneumoniae, C-terminal octa-histidine tag) (Pseudomonas aeruginosa | Klebsiella pneumoniae) (UniProt P52687); experiment: MST; GacS649 or CitAGacS649 labelled with AlexaFluor 488 at 80 nM, RetSHK titrated from 140 uM to 1.06 nM, 37 °C, 0.007% DDM, no citrate; apparent constants
[3] = target: GacS649 (GacS residues 1-649 with C-terminal octa-histidine tag) (Pseudomonas aeruginosa); experiment: as above

B1: RetSHK (histidine kinase region of the sensor histidine kinase RetS, residues 413-649) (domain or fragment)
chain: QTKAEFLAKISHEIRTPMNGVLGMTELLLGTPLSAKQRDYVQTIHSAGNELLTLINEILDISKLESGQIELDEVQFDLNALIEDCLDIFRVKAEQQRIELISFTQPQVPRVIGGDPTRLRQVVLSLLDNAFKQTEEGEILLVVALDDQGETPRLRIAVQDSGHPFDAKEREALLTAELHSGDFLSASKLGSHLGLIIARQLVRLMGGEFGIQSGSSQGTTLSLTLPLDPQQLENPTA
fold decrease in affinity with 10 mM citrate against no citrate [1]: 5 fold
Kd [2]: 10 µM
Kd [3]: 10 µM
